Tests used:
crystal structure = target: the molecule itself; assay: crystal structure
AUC = target: the molecule itself; assay: AUC

B1: 2-methyl-3-hydroxypyridine-5-carboxylic acid oxygenase (MHPCO) from Mesorhizobium loti MAFF303099, with N-terminal 6xHis tag (enzyme, UniProt Q988D3 1-379, looked up)
chain: MANVNKTPGKTRRAEVAGGGFAGLTAAIALKQNGWDVRLHEKSSELRAFGAGIYLWHNGLRVLEGLGALDDVLQGSHTPPTYETWMHNKSVSKETFNGLPWRIMTRSHLHDALVNRARALGVDISVNSEAVAADPVGRLTLQTGEVLEADLIVGADGVGSKVRDSIGFKQDRWVSKDGLIRLIVPRMKKELGHGEWDNTIDMWNFWPRVQRILYSPCNENELYLGLMAPAADPRGSSVPIDLEVWVEMFPFLEPCLIEAAKLKTARYDKYETTKLDSWTRGKVALVGDAAHAMCPALAQGAGCAMVNAFSLSQDLEEGSSVEDALVAWETRIRPITDRCQALSGDYAANRSLSKGNMFTPAALEAARYDPLRRVYSWPQ
modifications: selenomethionine in place of methionine (SeMet MHPCO)
stoichiometry N (crystal structure): 2
stoichiometry N (AUC): 4

Source: publication PMC2708785 (Biochemistry, 2009)
